Molecular target: T1, HLA-E*0103 (recombinant, refolded with peptide into monomer complexes)
T1 construct: The paragraph names only the allele
Assay: peptide binding and peptide/HLA-E refold into monomer complexes

YLLPAIVHI [peptide YLLPAIVHI from the protein RNA Helicase]: binds.

— patent US20200291128A1 (ABEXXA BIOLOGICS, published 2020)
